Results published in article doi:10.1101/2021.03.10.434834 (bioRxiv, 2021).

B1: REGN10985 Fab (Fab, V domains shown)
VH: EVQLVESGGGLVQPGRSLRLSCAASGFTFDDYAMHWVRQAPGKGLEWVSGISWNRGSIGYADSVKGRFTISRDNAKNSLYLQMSSLRAEDTALYYCAKDGERWDSVVVPSARNGMDVWGQGTTVTVSS
VL: QSVLTQPPSVSGAPGQRVTISCTGSSSNIGAGYDVHWYQQLPGTAPKLLIYGNSNRPSGVPDRFSGSKSGTSASLAITGLQAEDEADYYCQSYDSSLSGSYVFGTGTKVTVL
B2: REGN10989 Fab (Fab, V domains shown)
VH: QVQLVQSGAEVKKPGASVKVSCKASGYIFTGYYMHWVRQAPGQGLEWMGWINPNSGGANYAQKFQGRVTLTRDTSITTVYMELSRLRFDDTAVYYCARGSRYDWNQNNWFDPWGQGTLVTVSS
VL: QSALTQPASVSGSPGQSITISCTGTSSDVGTYNYVSWYQQHPGKAPKLMIFDVSNRPSGVSDRFSGSKSGNTASLTISGLQAEDEADYYCSSFTTSSTVVFGGGTKLTVL

Molecular target: SARS-CoV-2 spike protein receptor binding domain (SARS-CoV-2, UniProt P0DTC2)
Assay: cryo-EM structure

Row | Binder | binding result
1 | B1 | binds
2 | B2 | binds
